Experimental data as given in article PMC6422494.

Molecular target: GST-stx-1A (syntaxin-1A, GST fusion, immobilised on glutathione-sepharose beads) (UniProt P32851)
Assay: pull-down; GST-stx-1A immobilised on glutathione-sepharose beads; one prey protein (5 µM), 20 hr, 4°C; 100 mM NaCl, 20 mM Tris, 1 mM DTT, 1 mM EDTA, 0.5% Triton X-100, pH 7.4; four washes; SDS-PAGE, Coomassie, molar retention ratio by densitometry

UniProt P32851, sequence (P32851 1-262): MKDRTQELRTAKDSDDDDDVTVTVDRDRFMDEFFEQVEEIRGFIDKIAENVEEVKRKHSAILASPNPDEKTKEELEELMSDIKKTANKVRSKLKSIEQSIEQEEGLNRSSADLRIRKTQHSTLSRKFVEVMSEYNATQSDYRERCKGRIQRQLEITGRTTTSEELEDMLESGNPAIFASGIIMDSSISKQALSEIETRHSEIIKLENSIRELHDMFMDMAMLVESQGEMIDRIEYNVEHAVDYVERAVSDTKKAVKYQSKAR

SN25 L^GGS (6xHis-tagged, recombinant; whole linker aa 83-141 substituted by a flexible G/S peptide) (from UniProt P60881-2 1-82; P60881-2 142-206) (natural protein)
molar ratio bound, percent lower than WT: 50 % lower
